Measured values as given in the supplement of paper PMC12636428.

Test system: Saccharomyces cerevisiae
Test: transcriptional activation domain activity (GFP:mCherry ratio, weighted mean of sorted bins, harmonized to initial dataset scale) (arbitrary fluorescence ratio units); higher = stronger transcriptional activation
Settings: beta-estradiol 1 µM; induction time 4 h
Method in brief: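 Activation activity, the read-weighted mean of bin median fluorescence averaged across barcodes, was linearly mapped onto the scale of the initial dataset. It was measured for barcoded protein tiles fused to an estradiol-inducible synthetic transcription factor at URA3 in GFP-reporter yeast diploids. Cultures diluted 1:5 into SC with 1 uM beta-estradiol were held 4 hours at 30 °C, sorted into 8 bins by GFP:mCherry ratio, and barcode-sequenced, and tiles under 50 reads were discarded.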

Sequence	transcriptional activation domain activity
KESTTPSGTIKEVEGGEKGEEGTVAKQNNGEKGLVKSAGRNFLVDERVLRQSF	40600
EFYLQIPFRVCMGNGRRRDRVLRDMRRAKRYSDAIEAMKRIVWPIVSFRLLLP	63600
SRVSLTVFRFSYVWLSLIFAIPLLCAVLIELYFLMPLHAWMGPSEPHVVHLIQ	46800
SSAASAGGEGEGKDGKRKKDGQEEEEEEDKGSKKVKKNDGGAKQTKEGAKTSD	< 6570
DDAVVESFFSSSTDSTPMFEYENLEDNSKEWTSLFDNDIPVTTDDVSLADKAI	114000
FFDDIPDTLESIRKHIDLFGNDFYLAHIYRTLRWWTKPTHVAVLGDLLGSQWI	70300
HLNGESSPQLVPHSHHQPHSDTDEEDWESIGAASLRNNSLAPNIDSVASSTNG	45100
LVEFLFAVNDEVANVLLVFFCVFVAGYFILTSLPLLFQQCPFQTPLTSFFWYA	38600
SNGTSLFVTCWVALNVFFHFYRLPLRWDFFFVFADRAGLIFIVNLPLLYLLAA	59500
VRLVDIFLLKKYYLINLSLAYLSILLFPPPSPRPLYHLFSIYFFFFLFSSASP	45400
MWFLHPLPFPLASSTWLHFVVLSFYIFFFLPFPSCALVLFWCWFFLLVRLLTS	39400
MEEPSGDASRRRNGPRLYHKKSRLGCIRCKQRRVKCDEKRPACTGCSRHAVEC	60500
NNIISNRKQASKEKRKIPRHIQTIDEKLINDSNYLAFLKFDDLENEKFHSSAS	56600
PAHVIFDVVIVCAGYFAREAFEEVVRMTTMCAVGPVFVVQALVRAGKVCTGIG	76300
MGTLLFVFMYYGWAFFLDYFIWCFVVSLCFWYKVCLAVLLLAFDVYCHLWCMI	60200
SRPSTAPKPAPNPSPETTVTSISTPSEKRKRGRKPKAKPVEVPVSQTSGADSL	20600
QLNLVNHFYQFSLHFFLDIFDYILHHNPNLKGVTDYPTRRAILLNDLFLVVYR	58200
HMALVHLFAFLDRFALFGKLYRAAQVVNRVTSPYVVLAWTSLYSFSLRVVART	52400
FLKIYLLNPLHMTRFTDLLHQGFILNRVFQPYESHLQYLLQWMCDYNLYGCAY	39200
GLKLSPSSSGLLSTNESNAIEQFLDNLISQDMMSSNASMNSESHLHIRSPKKQ	68400
SPENVSLAAVTGVYGLGLNPWPTFDYNMLGLDPLVTPFFTTFNFFLGTLFTLP	74100

Sequence	transcriptional activation domain activity
FFGSLMGGALARPQDHWPELFAHPFWTTHPYFLPSASSDCVLLLIIFISLFFL	77800
MSVLYIEDTFPSCFIKFKELVVCSRLCMMFPFQYQFASLLLYLILLLAYHLFL	54300
GHKAEESVPRKPSRSKSKAREAEWAPDGGEEPVSRKPSRSKAKPKAAEVEKED	23200
MGLTVFSILYIPLNIIPPFFCCCLYIYHCFSFFSSTFILFFFFFGTVFAQVIL	53200
MKTINILTTPPLHIFFSTPIVYSLFLLLNFFPIFFFFFFFFLYSLPFFFFIVA	52100
FPTLGFVVDRYFRVTNFVPETFWSIKVVHKKDSINVNFNWKRGHLFDRMTVTV	71400
ERKDREKMKAKLKEAKREKQRKERAREREKERERKRKEKEKEKKRKEKERERK	38000
AEEGEEGRRKKGASKARSESGRSRIGGKRKEGEGEREGDEGRKKKRKKNKEKE	32800
MEACMSIMMIPMILRNGTVFSFFFRVMLYFTCIVSMAGWLVPGSYWLWFGLVC	48100
EIFSSYNASMVQESAGIDFLDFAMPDLIAEANDWAFQGVDSAFFDSVMAGYTL	147000
LILARRKGDDRFRRIFMFTMCRLLVTRNHNPDLRRLVTEYLLNVDRFMILLLG	59000
KADEDAQTGEKRKAEEPAADTNGEKSKDEEPASKKAKTDEEEKTAGKAKKPGR	24000
ISYVSLEIRRTVFGLRLFAVAFYCTFFYWLMIRPNCKARFWCNFQPFSWIQAI	43100
DVDEAGEARGDSSSLCLSFLSLLLFFLFFLFFLLFRFLHLLHFFLFLLVFHFF	47600
MLDVNMSCPFADIRYLLVFSCYFADYLLMLQIWGFCLWLFTLIYMVGGVWLMV	34300
MSSLYFFDLMISWLLCFLAFRGDLFYMVFFFLYHFFFLLCGFWFFFCTDIHFY	59900
RDRRRRSRSRSRDRRNKRRRRELEDRSKRRRSKSRVKNEETSEAEKRGRRRKP	37900
TAKLLLEDSMKKKRQEIQQLEQATHQRSNLETTHLLDIDWDALLDPSDTLNFM	90000
RSMLFPKPSGFKFYRDSFRYISVMACVAMLGFIATFINFIRLGIAWHLIIVRA	54400
MPLWPPFWSAFSFSFSFVLSFFFFLFPFPFPFPFPFSFSLSFLFFLFFSFLFF	31000
STVHNLVELMPLQQLCGFCCFSMRFVVFLDLLSTVVAPVIVVYIGYLIYILAY	56100

Sequence	transcriptional activation domain activity
MGVLFLLCPCLCVVPLFCIAMQWSIGLYLCLDQRFPVLYTYFFILFSSILFCS	48300
TLAGMIRENDEEQKSRGITRIKELEIKCLIEGAYGINRPMHLFETAVVIAGGV	54500
GELRLPELQAIGISGGMSLLQDAVFMDGRPEASPLFKIIHLLKRASHWKLGRS	46300
MSEPPRKRAKLACVTCNSRRVKCDVTDRQPCTNCITANVHCETRESKRGKHPR	40500
EIGALMLLSKTLEDNPNRLGSLVRILTLKCFIPQSYFKLMVRRLNILFSCCSR	64300
EADGERRSNGGSAGPRAGRRGGRDRDDRKGKPSKDSKARGEKSSEEKIGSNKE	47500
MYSIGVLTWKHDIGFFEDLLWSWCRVCFERYYTNVSPCTKLLSMELLLNCLLG	69100
KRKACLVCDLICTLLLQGLVSNEELRIDYSHRRCDLWRRQRWIGFVTPLSILE	36400
GKPGGGEAKTGERKGEGRGGRGKGGPGGKKDGPPPGEGKGAVVASAASTSATP	34700
MSLAYLILGFPIPPFLPYFLDVVLSPLSRFSPLPLVFPFVLWCPTSLPLFTSF	51400
MIASHPSPFLSRLFGLPLLFFSSFIEVSLFFLFFLPSLRFLFFFFPSLALFFF	42700
EKERGRERERKERKVNGAWIKTKPKKRRDDSARARRHTRRRDVSSSASPTREM	25800
RVRAAERAGQQAGREGRRGRQRGEHARRGGRAAHERAAQAHHRAPVPVPVRVP	62200
MFQIHFLLFFFFFFSFFLLLLCFDVSILEVYFYKLLLFSFFFMMIVDLFFLFL	60300
AAGAAGAKASKAPKASKAAKAPKASGAAGAKKGGKKAGKGAASSGAAKAPAAT	42400
FMNTNEINNNNNNNNNNKNNINNINNNNSNNFSATSFNLGTLDEFVNNGDLED	11800
WDMTLGGTINKTGVIGVIMIVIGFYLWFFLSCAVLIAMEGCSAMLHSLRLQWV	31300
EGYDLLPFRLGCAYVVLGWYWISTTWVEAEPVSQGVKPPKDRDYFHRVKLRFD	42200
MFCLRSWLPLLFIPTSASPVFIFLFFVCTYFLNRPCVYCSFLLLILFLTSCNW	30800
GGGKGHEDGYMREVRVVPAYLLVEIINRKENRKERVGAKLLLTRACVLGLYTL	45400
RSKSSDESSSDSDSDSGSESGSDSDTSRRKRSKSKSSSRSKSKSKSSKLRARS	10600

Sequence	transcriptional activation domain activity
MDISFFMLFVFDDFFLYSYFFFPSPRPLSNDATLIHIVCILFIILVGLTIVLL	36800
LLVTLMQVPDTDQVVLFNKVLSVIVLVMAHHHELGGPRFDQRPFLRLFSSILA	43800
LQRKNPEEQIAVNKVISLLYSNRESSYLEDTCPTENDYSDLLKGYINEIEKTL	33800
KVSFLFGVWFFFSFEVLGFFDFFPSFLSFRRIFFIIFILYFIIYLYVVFFVSF	73700
RLGEEKRSKSTEEAPREESEEAESTKKASGKSESAGEEKTKEEGEEGEGKKEG	30800
QQTGKGKIHRQYALVVVGNGDGLVGYGEGKDEELPRASDKAFAAAVRNMDHVE	43700
AKYVTTSMEVTPVTFGTYRTVFLPNGGLFFAILTTIRDFVTRHGLHSKIAMIF	54300
MGMEYIFCLSLSSWGYIFFSFHGFPLFLIFIFSFLARFFLLFFHLFFSFSFFA	65400
AYNLILIIRWCLFIITIYYCYTLVLYHHYKVNFKQLIRKSMSPIKNNNLIHQF	65300
LAELVPKLDDSTVQYAYVRQEYANDSESTRVKFALIIWIGQSTKVMRKARVSI	52800
TLHIVLVSYGMYFYLILNFANIAALLSPSWAFLVQVYLTCISDTVVRSVFFSR	69200
FFEVGGVPRFQETVIAGGDNSVGRALSSPTVIYSGKHDGIALTIIRLLRPIWL	53400
ARGMYLMVDVVANQFGILCSRADGTSIDDFDFSGLWPFSSSSYFHPMCWLYWL	64000
MSYFVFPLLLPSLPRVLPRHSICILHFLLHFRTPPSPNLTHSLLIFLFLLLVR	64000
MFIYVFRPCNCIHLFIICQFSLFLITLLLYLFDLFFQLPFLLCINLTFCVAMC	64900
LVSHTVFKIIAICRHYAPPDGYMLAYVLCSSFALASTLWCTLLIICRIVILVQ	39100
YCLLYWVWWFLAFSCWVFCLIYIFAIHCLIWVLVWLSVCFLLMGGYLFFCKED	30600
MPFYMPSKGLAIKDFVGQIALIIKVYVNPITLVSISYHYYMFFLSLNCLWLFL	65100
DAFADGDGDATVTEGETSEKPKKARKKRAKKDTGEDDAEAKPKKKAKRKAKAA	14500
MCVFLFFVLWLLQKLGLLALALRCYVQKNSLIFFLFFFLVLDYIFFFLHWCKH	35300
